# ± gives the standard deviation.
# Assay: collision cross section of modified peptide (TIMS, N2, iRT-aligned); higher = larger / more extended gas-phase ion
# Outline: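 Collision cross section was derived from the Mason-Schamp equation. Each value averages 1–3 technical replicates of the most abundant feature per charge state, measured on a timsTOF Pro/HT in dda-PASEF mode (nitrogen, ~2.4 mbar) after a 120-min nanoflow C18 gradient at 60 °C. Synthetic peptide pools (~100 fmol/µL in 2% acetonitrile/0.1% formic acid, iRT standard spiked 1:40) were identified with MaxQuant, and 1/K0 was calibrated with three reference ions and aligned run-wise to the median iRT peptide deviation.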
# [1] = charge state: 2, modification: Dimethyl (K)
# [2] = charge state: 3, modification: Dimethyl (K)
# [3] = charge state: 2, modification: Butyryl
# [4] = charge state: 2, modification: Trimethyl (K)
# [5] = charge state: 2, modification: Methyl (R)
# [6] = charge state: 3, modification: Methyl (R)
# [7] = charge state: 2, modification: Acetyl (K)
# [8] = charge state: 3, modification: Acetyl (K)
# [9] = charge state: 2, modification: Succinyl
# [10] = charge state: 3, modification: Succinyl
# [11] = charge state: 2, modification: hydroxyisobutyryl
# [12] = charge state: 3, modification: hydroxyisobutyryl
# [13] = charge state: 2, modification: Formyl
# [14] = charge state: 2, modification: Biotin
# [15] = charge state: 3, modification: Butyryl
# [16] = charge state: 2, modification: Phospho (Y)
# [17] = charge state: 2, modification: Propionyl
# [18] = charge state: 3, modification: Formyl
# [19] = charge state: 3, modification: Propionyl
# [20] = charge state: 2, modification: Malonyl
# [21] = charge state: 2, modification: Glutarylation
# [22] = charge state: 2, modification: Methyl (K)
# [23] = charge state: 3, modification: Methyl (K)
# [24] = charge state: 2, modification: Hydroxyproline
# [25] = charge state: 3, modification: Hydroxyproline
# [26] = charge state: 2, modification: GlyGly (K)
# [27] = charge state: 3, modification: GlyGly (K)
# [28] = charge state: 3, modification: Trimethyl (K)
sequence,measurement,setting,value
IINEPTAAAIAYGLDKK [_IINEPTAAAIAYGLDK(Dimethyl (K))K_],collision cross section,[1],490.46 ± 1.8 Å²
same,collision cross section,[2],554.13 ± 0.54 Å²
LDHLAEKFR [_LDHLAEK(Biotin)FR_],collision cross section,"charge state: 3, modification: Biotin",452.58 Å²
VFSIISSEKELK [_VFSIISSEK(Butyryl)ELK_],collision cross section,[3],413.27 ± 0.78 Å²
GEVQVSDKER [_GEVQVSDK(Trimethyl (K))ER_],collision cross section,[4],366.73 ± 1.1 Å²
TQDQISNIKYHEEFEK [_TQDQISNIK(Crotonyl)YHEEFEK_],collision cross section,"charge state: 3, modification: Crotonyl",560.13 Å²
GRGAAAAGGPQR [_GR(Methyl (R))GAAAAGGPQR_],collision cross section,[5],338.98 ± 2.7 Å²
same,collision cross section,[6],434.02 ± 3.5 Å²
ASEALLKQLK [_ASEALLK(Acetyl (K))QLK_],collision cross section,[7],373.11 ± 0.4 Å²
DLSTVEALQNLKNLK [_DLSTVEALQNLK(Acetyl (K))NLK_],collision cross section,[7],475.96 ± 3.5 Å²
same,collision cross section,[8],544.02 Å²
GTITVSAQELKDNR [_GTITVSAQELK(Succinyl)DNR_],collision cross section,[9],421.79 ± 0.53 Å²
same,collision cross section,[10],480.4 ± 2.5 Å²
VDVEVPDVSLEGPEGKLK [_VDVEVPDVSLEGPEGK(hydroxyisobutyryl)LK_],collision cross section,[11],470.57 ± 1.1 Å²
same,collision cross section,[12],549.45 ± 27 Å²
GFCFITYTDEEPVKK [_GFCFITYTDEEPVK(Formyl)K_],collision cross section,[13],450.51 Å²
SGKFTQQDIDEAK [_SGK(Biotin)FTQQDIDEAK_],collision cross section,[14],433.94 ± 2.7 Å²
DASTLQSQKAEGTGDAK [_DASTLQSQK(hydroxyisobutyryl)AEGTGDAK_],collision cross section,[11],441.13 ± 0.33 Å²
same,collision cross section,[12],514.99 ± 2.1 Å²
DFDTALKHYDK [_DFDTALK(Butyryl)HYDK_],collision cross section,[3],408.66 ± 0.23 Å²
same,collision cross section,[15],465.65 ± 2.9 Å²
AGPNASIISLKSDK [_AGPNASIISLK(Acetyl (K))SDK_],collision cross section,[7],408.51 ± 3 Å²
VRLQTTLR [_VR(Methyl (R))LQTTLR_],collision cross section,[5],349.69 ± 0.95 Å²
same,collision cross section,[6],439.94 ± 4.3 Å²
GARLPGPVSSAR [_GAR(Methyl (R))LPGPVSSAR_],collision cross section,[5],360.12 ± 1.2 Å²
same,collision cross section,[6],474.74 ± 8.7 Å²
YIEIYVQKVNPSR [_YIEIYVQK(Succinyl)VNPSR_],collision cross section,[9],436.15 Å²
VYVGNLGTGAGK [_VY(Phospho (Y))VGNLGTGAGK_],collision cross section,[16],364.53 ± 0.064 Å²
SLKLNTAEDAK [_SLK(Butyryl)LNTAEDAK_],collision cross section,[3],378.05 ± 1.5 Å²
SKLLFSNTAAQK [_SK(Propionyl)LLFSNTAAQK_],collision cross section,[17],398.2 ± 1.4 Å²
VFIGNLNTLVVKKK [_VFIGNLNTLVVK(Formyl)KK_],collision cross section,[18],499.94 Å²
SPDEAYAIAKK [_SPDEAYAIAK(Propionyl)K_],collision cross section,[17],373.53 ± 0.94 Å²
same,collision cross section,[19],448.43 ± 0.74 Å²
SISQSISGQK [_S(HexNAc (ST))ISQSISGQK_],collision cross section,"charge state: 2, modification: HexNAc (ST)",366.39 ± 0.12 Å²
ANLEKAQAELVGTADEATR [_ANLEK(Malonyl)AQAELVGTADEATR_],collision cross section,[20],476.69 ± 0.96 Å²
same,collision cross section,"charge state: 3, modification: Malonyl",576.12 ± 0.95 Å²
LQLEIDQKK [_LQLEIDQK(Gluratylation)K_],collision cross section,[21],373.2 ± 0.7 Å²
DTPTSAGPNSFNKGK [_DTPTSAGPNSFNK(Methyl (K))GK_],collision cross section,[22],405.71 ± 2.7 Å²
same,collision cross section,[23],460.78 ± 4.6 Å²
VELCSFSGYK [_VELCSFSGY(Phospho (Y))K_],collision cross section,[16],372.99 ± 0.08 Å²
PANEKATDDYHYEK [_PANEK(Butyryl)ATDDYHYEK_],collision cross section,[3],443.05 ± 0.53 Å²
same,collision cross section,[15],509.24 ± 1.8 Å²
FGTINIVHPKLGSYTK [_FGTINIVHPK(Formyl)LGSYTK_],collision cross section,[13],468.22 ± 1.4 Å²
same,collision cross section,[18],546.15 ± 1.5 Å²
GQQGEPGPK [_GQQGEP(Hydroxyproline)GPK_],collision cross section,[24],313.43 ± 0.56 Å²
ASAISIKLGSSK [_ASAISIK(Methyl (K))LGSSK_],collision cross section,[22],369.46 ± 0.48 Å²
same,collision cross section,[23],438.5 ± 5.9 Å²
VGLQVVAVKAPGFGDNR [_VGLQVVAVK(Acetyl (K))APGFGDNR_],collision cross section,[7],442.66 ± 2 Å²
same,collision cross section,[8],493.83 ± 2.3 Å²
FGDSRGGGGNFGPGPGSNFR [_FGDSR(Methyl (R))GGGGNFGPGPGSNFR_],collision cross section,[6],500.57 ± 1.4 Å²
AGQKLIDVNHYAK [_AGQK(Butyryl)LIDVNHYAK_],collision cross section,[3],434.25 ± 1.1 Å²
same,collision cross section,[15],485.15 ± 2.9 Å²
VYIASSSGSTAIKK [_VYIASSSGSTAIK(Formyl)K_],collision cross section,[13],408.95 ± 1.8 Å²
same,collision cross section,[18],497.96 ± 1.5 Å²
GAEKTEVAEPR [_GAEK(Biotin)TEVAEPR_],collision cross section,[14],393.63 Å²
SKHLQEQLNELK [_SK(Succinyl)HLQEQLNELK_],collision cross section,[9],419.21 ± 1.5 Å²
same,collision cross section,[10],481.12 ± 2 Å²
LEKTIDDLEEK [_LEK(Butyryl)TIDDLEEK_],collision cross section,[3],409.44 ± 0.57 Å²
FPGVGVLPGVPTGAGVKPK [_FPGVGVLPGVPTGAGVKP(Hydroxyproline)K_],collision cross section,[24],440.08 ± 1.4 Å²
same,collision cross section,[25],556.97 ± 11 Å²
INNFSADIKDSK [_INNFSADIK(Succinyl)DSK_],collision cross section,[9],402.07 ± 0.25 Å²
same,collision cross section,[10],465.51 Å²
GGGGGRGGLHDFR [_GGGGGR(Methyl (R))GGLHDFR_],collision cross section,[6],457.91 ± 1.5 Å²
LQDVSGQLSSSKK [_LQDVSGQLSSSK(Butyryl)K_],collision cross section,[3],401.39 ± 0.74 Å²
same,collision cross section,[15],476.47 ± 3.2 Å²
DTGEKLTVAENEAETK [_DTGEK(Malonyl)LTVAENEAETK_],collision cross section,[20],444.04 ± 1.8 Å²
DYILEGEPGK [_DY(Nitro (Y))ILEGEPGK_],collision cross section,"charge state: 2, modification: Nitro (Y)",355.27 ± 0.17 Å²
GFALVGVGSEASSKK [_GFALVGVGSEASSK(Malonyl)K_],collision cross section,[20],414.22 ± 0.58 Å²
GTVPDDAVEALADSLGKK [_GTVPDDAVEALADSLGK(GlyGly (K))K_],collision cross section,[26],485.77 ± 1.3 Å²
same,collision cross section,[27],534.99 ± 1.1 Å²
SSFAYKDQNENR [_SSFAYK(Trimethyl (K))DQNENR_],collision cross section,[4],417.36 ± 0.75 Å²
same,collision cross section,[28],458.31 ± 1.5 Å²
PPGFSPFRSSR [_PP(Hydroxyproline)GFSPFRSSR_],collision cross section,[24],367.16 Å²
same,collision cross section,[25],458.87 ± 0.35 Å²
LGNDFHTNKR [_LGNDFHTNK(Propionyl)R_],collision cross section,[17],374.29 Å²
same,collision cross section,[19],447.46 ± 0.59 Å²
VDIDVPDVNIEGPDAKLK [_VDIDVPDVNIEGPDAK(GlyGly (K))LK_],collision cross section,[26],469.92 ± 1.9 Å²
same,collision cross section,[27],504.15 ± 0.79 Å²
VNVEAPDVNLEGLGGKLK [_VNVEAPDVNLEGLGGK(Acetyl (K))LK_],collision cross section,[7],460.53 ± 2.8 Å²
same,collision cross section,[8],542.09 Å²
PSVSTKLISK [_PSVSTK(Propionyl)LISK_],collision cross section,[17],354.68 ± 0.33 Å²
FLQEFYQDDELGKK [_FLQEFYQDDELGK(Gluratylation)K_],collision cross section,[21],453.64 ± 1.5 Å²
same,collision cross section,"charge state: 3, modification: Glutarylation",517.26 Å²
SKHLQEQLNELK [_SK(Butyryl)HLQEQLNELK_],collision cross section,[3],422.39 ± 0.24 Å²
same,collision cross section,[15],490.06 ± 2.9 Å²
GLATFPSRGAK [_GLATFPSR(Citrullination (R))GAK_],collision cross section,"charge state: 2, modification: Citrullination (R)",353.86 ± 0.53 Å²
IISSIEQKEENK [_IISSIEQK(GlyGly (K))EENK_],collision cross section,[26],403.29 ± 1.5 Å²
same,collision cross section,[27],482.93 Å²
TLQKQSVVYGGK [_TLQK(Trimethyl (K))QSVVYGGK_],collision cross section,[4],405 ± 1.6 Å²
same,collision cross section,[28],449.39 ± 2.4 Å²
VFIGNLNTLVVKK [_VFIGNLNTLVVK(Methyl (K))K_],collision cross section,[22],423.04 ± 1.2 Å²
same,collision cross section,[23],477.31 ± 4.3 Å²
VDIDVPDVNIEGPDAKLK [_VDIDVPDVNIEGPDAK(Dimethyl (K))LK_],collision cross section,[2],550.04 ± 1.1 Å²
VFIGNLNTLVVKK [_VFIGNLNTLVVK(Dimethyl (K))K_],collision cross section,[1],427.12 ± 1.4 Å²
same,collision cross section,[2],478.47 ± 1.2 Å²
IHVQSSSDSSDEPAEKR [_IHVQSSSDSSDEPAEK(hydroxyisobutyryl)R_],collision cross section,[11],455.71 ± 0.4 Å²
same,collision cross section,[12],514.66 ± 3.7 Å²
SITHSTVGSKGEK [_SITHSTVGSK(hydroxyisobutyryl)GEK_],collision cross section,[11],401.03 ± 1.4 Å²
same,collision cross section,[12],446.16 ± 2.7 Å²
DYSSGFGGKYGVQADR [_DYSSGFGGK(Malonyl)YGVQADR_],collision cross section,[20],435.88 ± 0.59 Å²
IQNGAQGIRFIYTR [_IQNGAQGIR(Citrullination (R))FIYTR_],collision cross section,"charge state: 3, modification: Citrullination (R)",506.23 Å²
SKLLFSNTAAQK [_SK(Trimethyl (K))LLFSNTAAQK_],collision cross section,[4],395.61 ± 0.017 Å²
same,collision cross section,[28],446.07 ± 2.4 Å²

# From the supplement of paper PMC10598134
